IC50 data for three molecules are collected here from paper PMC2193908 (The Journal of Experimental Medicine, 2003).

Read-outs that look alike come from different tables or passages of the source.

Common to all, as to test: radioligand binding
Assay [1] addresses CXCR3-B (alternatively spliced variant of CXCR3) (human) (UniProt P49682).
Assay [2] concerns the target CXCR3-B on the renal carcinoma ACHN cell line (human (endogenous in ACHN)) (UniProt P49682).
The target of assay [3] is CXCR3-A (classic CXC chemokine receptor 3) (human) (UniProt P49682).
Assay [4] deals with CXCR3-B (alternatively spliced variant of CXCR3) (human) (UniProt P49682). This is another data set of the same source.
In assay [5] the target is T1, CXCR3-A (classic CXC chemokine receptor 3) (human, UniProt P49682-1 1-368).
T1 sequence (looked up): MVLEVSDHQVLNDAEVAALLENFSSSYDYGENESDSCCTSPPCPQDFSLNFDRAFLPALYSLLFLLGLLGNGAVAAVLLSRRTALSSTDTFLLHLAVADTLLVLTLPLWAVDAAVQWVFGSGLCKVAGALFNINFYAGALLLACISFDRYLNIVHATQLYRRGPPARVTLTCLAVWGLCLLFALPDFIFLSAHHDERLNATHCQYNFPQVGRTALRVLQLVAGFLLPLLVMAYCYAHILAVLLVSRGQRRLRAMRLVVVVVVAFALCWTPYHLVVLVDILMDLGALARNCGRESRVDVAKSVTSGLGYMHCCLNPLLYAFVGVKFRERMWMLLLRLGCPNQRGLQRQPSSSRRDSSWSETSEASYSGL

The target in assay [6] is T2, CXCR3-B (alternatively spliced variant of CXCR3) (human, UniProt P49682-2 1-415).
T2 sequence (looked up): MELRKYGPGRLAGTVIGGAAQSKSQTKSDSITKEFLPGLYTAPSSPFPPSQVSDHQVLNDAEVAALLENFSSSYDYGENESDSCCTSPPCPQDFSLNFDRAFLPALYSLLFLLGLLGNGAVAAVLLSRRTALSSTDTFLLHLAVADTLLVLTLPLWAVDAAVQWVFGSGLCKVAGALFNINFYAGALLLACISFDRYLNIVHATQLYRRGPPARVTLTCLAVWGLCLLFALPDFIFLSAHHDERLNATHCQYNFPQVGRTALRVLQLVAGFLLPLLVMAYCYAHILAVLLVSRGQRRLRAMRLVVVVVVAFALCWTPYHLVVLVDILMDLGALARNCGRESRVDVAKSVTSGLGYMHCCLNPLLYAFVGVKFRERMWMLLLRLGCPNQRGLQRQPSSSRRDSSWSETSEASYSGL

Assay [7] has as its target T3, CXCR3-B on the renal carcinoma ACHN cell line (human (endogenous in ACHN), UniProt P49682-2 1-415).
T3 sequence (looked up): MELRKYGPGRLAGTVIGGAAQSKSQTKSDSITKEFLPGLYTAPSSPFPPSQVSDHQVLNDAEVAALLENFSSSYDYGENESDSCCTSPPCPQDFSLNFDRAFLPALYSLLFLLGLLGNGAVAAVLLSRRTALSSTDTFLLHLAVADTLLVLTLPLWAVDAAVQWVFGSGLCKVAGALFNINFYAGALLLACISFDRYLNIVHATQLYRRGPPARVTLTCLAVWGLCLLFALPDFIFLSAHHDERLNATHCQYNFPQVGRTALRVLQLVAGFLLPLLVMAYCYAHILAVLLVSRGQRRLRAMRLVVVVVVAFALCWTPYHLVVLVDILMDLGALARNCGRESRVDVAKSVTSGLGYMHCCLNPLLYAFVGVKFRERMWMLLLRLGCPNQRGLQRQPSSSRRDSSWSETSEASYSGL

In the case of CXCL4/PF4 (platelet factor 4) (ligand), the concentration for half-maximal inhibition (IC50) (usually the midpoint of a concentration-inhibition curve) in assay [1] stood at 7.46 nM; in assay [2], 6.83 nM; in assay [3] it was 448 nM; in assay [4], 1.85 nM.

B1: CXCL9/Mig (ligand, human, UniProt Q07325 23-125, looked up)
chain: TPVVRKGRCSCISTNQGTIHLQSLKDLKQFAPSPSCEKIEIIATLKNGVQTCLNPDSADVKELIKKWEKQVSQKKKQKNGKKHQKKKVLKVRKSQRSRQKKTT
Turning to B1, the values for the IC50 in assay [5], in assay [6] and in assay [7] were 33 ± 24 nM, 133 ± 46.5 nM and 88.5 ± 69.3 nM, respectively.

B2: CXCL11/I-TAC (ligand, human, UniProt O14625 22-94, looked up)
chain: FPMFKRGRCLCIGPGVKAVKVADIEKASIMYPSNNCDKIEVIITLKENKGQRCLNPKSKQARLIIKKVERKNF
For the molecule B2, the IC50 in assay [5] was determined as 0.41 ± 0.14 nM; in assay [6], 32 ± 10.2 nM; in assay [7], 49.6 ± 11.3 nM.
